The data set in a line: yeast display, Sf9 membrane polyspecificity reagent, FACS + sequencing; frameworks hold sequencing errors. The method in brief:
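A synthetic nanobody library was expressed on Saccharomyces cerevisiae BJ5465 by galactose induction for 36–48 hours. The library was stained for 1 hour at 4 °C with 10% biotinylated, detergent-solubilized Sf9 membrane reagent and enriched with streptavidin microbeads before FACS. Low and high (top ~1%) gates were set on anti-HA fluorescence for expression and streptavidin fluorescence for reagent binding, and each polyreactivity label reflects the gate of origin.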
“QVQLVESGGGLVQAGGSLRLSCAASGSTFAWYDMGWYRQAPGNEREFVAAIDYGGGSTYADSVKGRFTISRDKEKNTVYLQMNSLKPEDTAVYYCNADNWVYLYDYWGQGTQVTVSS”: the “polyreactivity (PSR sort gate)” value was “low polyreactivity”.

As to “QVQLVESGGGLVQAGGSLRLSCAASGSTFAYAMGCYRQAPGKERELVAAIRTTGGSTYYADSVKGRFTISRDNAKNTVYFQMNSLNPEDSAVYYCAAVWGYGQYGSKYYYKYGYWGQGTQVTVSS”, the “polyreactivity (PSR sort gate)” value is recorded as “high polyreactivity”.

With “QVQLVESGGGLVQAGGSLRLSCAASGSTFAYNAMGWYRQAPGKERELVAAIRISGGTTYYADSVKGRFTISRDNAKNTVYLQMNSLKREDTAVYYCAAGTAGTTGSPKFSGYGYDYWGQGTQVTVSS”, the “polyreactivity (PSR sort gate)” value was “low polyreactivity”.

As to “QVQLVESGGGLVQAGGSLRLSCAASGSTFAYNAMGWYRQAPGKERELVAAISWRGGSTYYADSVKGRFTISRDNAKNTVYLQMNSLKPEDTAVYYCAALYPYKREDYWGQGTQVTVSS”, the “polyreactivity (PSR sort gate)” value is listed as “high polyreactivity”.

Regarding “QVQLVESGGGLVQAGGSLRLSCAASGSTFAYNAMGWYRQAPGKERELVAVITWSDDRTYYADSVKGRFTISRDNAKNTVYLQMNSLKPEDTSVYYCAADRSGYWHYYTPYDYWGQGTQVTVSS”, the “polyreactivity (PSR sort gate)” value is given as “low polyreactivity”.

Turning to “QVQLVESGGGLVQAGGSLRLSCAASGSTFAYNDMGWYRQAPGKERELVADIRSGGNTNYADSVKGRFTISRDNAKNTVYLQMNSLKPEDTAFYYCNVKYFVVAGYRYVKFDYWGQGTQVTVSS”, the “polyreactivity (PSR sort gate)” value is listed as “low polyreactivity”.

As to “QVQLVESGGGLVQAGGSLRLSCAASGSTFAYNVMGWYRQAPGKERELVAAITISGTSTYYADSVKGRFTISRDNAKNTVYLQMNSLKPEDTAVYYCAARRDRGRVKFYYWGQGTQVTVSS”, the “polyreactivity (PSR sort gate)” value is on record as “high polyreactivity”.

For “QVQLVESGGGLVQAGGSLRLSCAASGSTFAYYAMGWYRQAPGKERELVAAISWRGGSTYYADSVKGRFTISRDNAKNTVYLLMNILKPEVTAVYYCAAARDRWGNYWGQGTQVTVSS”, the “polyreactivity (PSR sort gate)” value is “high polyreactivity”.

Turning to “QVQLVESGGGLVQAGGSLRLSCAASGSTFAYYAMGWYRQAPGKERELVAAITSSGGSTYYADSVKGRFTISRDKAKNTVYLQMNSLKPEDTAVYYCNARYRRKSWRPFDYWGQGTQVTVSS”, the “polyreactivity (PSR sort gate)” value is “high polyreactivity”.

For the sequence “QVQLVESGGGLVQAGGSLRLSCAASGSTFAYYVMGWYRQAPGKERELVAAISRGGRTYYADSVKGRFTISRDNAKNTVYLQMNSLKPEDTAVSYCAKPYHQRSAKVDYWGQGTQVTVSS”, the “polyreactivity (PSR sort gate)” value is given as “low polyreactivity”.

On to “QVQLVESGGGLVQAGGSLRLSCAASGSTFAYYVMGWYRQAPGKERELVAAITSSGGRTYYADSVKGRFTISRDNAKNTVYLQMNSLKPEDTAVYYCAKVSQRRVDNSDYDYWGQGTQVTVSS”, for which the “polyreactivity (PSR sort gate)” value is recorded as “high polyreactivity”.

Take “QVQLVESGGGLVQAGGSLRLSCAASGSTFCGYAMGWYRQAPGKERELVAAITNGGSTYADSVKGRFTISRDNAKNTVYLQMNSLKPEDTAVYYCNTETGPSPVPVYDTEVDSWGQRTQVTVSS”: the “polyreactivity (PSR sort gate)” value is on record as “low polyreactivity”.

Consider “QVQLVESGGGLVQAGGSLRLSCAASGSTFCYSVMGWYRQEPRTEREFVAAISTRGDSTYYADSVKGRFTLSRDNAKNTVYLQMNSLKPEDTAVYYCAKSRQSCGRVRLDYWGQGTQVTVSS”, for which the “polyreactivity (PSR sort gate)” value is “low polyreactivity”.

With “QVQLVESGGGLVQAGGSLRLSCAASGSTFDANTMGWYRQAPGKERELVAAISSNGGRTYYADSVKGRFTISRDNAKNTVYLQMNSLKPEDTAVYYCAATSYYRYRETYDYWGQGTQVTVSS”, the “polyreactivity (PSR sort gate)” value is listed as “high polyreactivity”.

In the case of “QVQLVESGGGLVQAGGSLRLSCAASGSTFDAYAMGLYRQAPGKERELVAAITNAGSTNYADSVKGRFTISRDNAKNTVYLQMNSLKPEDTAVYYCATDWYHRYLDGRYDYWGQGTQVTVSS”, the “polyreactivity (PSR sort gate)” value is “low polyreactivity”.

On to “QVQLVESGGGLVQAGGSLRLSCAASGSTFDAYDMGWYRQAPGTERELVADINWSGGITYYADSVKGRFRISRDNAKNTVYLQMNSLKPEDTAVYYCNADASFYSRVNYWGQGTQVTVSS”, for which the “polyreactivity (PSR sort gate)” value is reported as “high polyreactivity”.

“QVQLVESGGGLVQAGGSLRLSCAASGSTFDDNAMGWYRQAPGKERELVAGISTNGGSTSYADSVKGRFTISRDNAKNTVYLQMNSLKPEDTAVYYCAKGMYVQFDYWGQGTQVTVSS”: the “polyreactivity (PSR sort gate)” value is reported as “low polyreactivity”.

“QVQLVESGGGLVQAGGSLRLSCAASGSTFDDNAMGWYRQAPGKERELVASITYRGGSTYYADSVKGRFTISRDNAKNTVYLQMNSLKPEDTAVYYCNADYTGAEYDYWGQGTQVTVSS”: the “polyreactivity (PSR sort gate)” value is listed as “low polyreactivity”.

With “QVQLVESGGGLVQAGGSLRLSCAASGSTFDFNAMGWYRQAPGKERELVAAITGSGGSTDYADSVKGRFTISRDNAKNTVYLQMNSMKPEDTAVYYCNAGKTIDYRDGVGYDHWGQGTQVTVSS”, the “polyreactivity (PSR sort gate)” value is given as “low polyreactivity”.

As for “QVQLVESGGGLVQAGGSLRLSCAASGSTFDFNAMGWYRQAPGKERELVAAITYSAGSTYSADSVKGRFTISRDNAQNTVDLQMNSLKPEDTAVYYCAAEDVYPGSIDMDDWGQGTQVTVSS”, the “polyreactivity (PSR sort gate)” value was “low polyreactivity”.

Turning to “QVQLVESGGGLVQAGGSLRLSCAASGSTFDGNAKGWYRQAPGKERELVATINSGSSTNYADSVKGRFTISRDNAKNTVYLQMISLKPEDTAVFYCNVDSGSDSLVYSVRYNYWGQGTQVTVSS”, the “polyreactivity (PSR sort gate)” value is reported as “low polyreactivity”.

On to “QVQLVESGGGLVQAGGSLRLSCAASGSTFDGNAMGWYRQAPGKERELVATINSDDSKNYADSVKGRFTISRDNAKNTVYLQMNSLKPEDTAVYYCAARLYVTPILSYVERYTNDYWGQGTQVTVSS”, for which the “polyreactivity (PSR sort gate)” value was “low polyreactivity”.

Take “QVQLVESGGGLVQAGGSLRLSCAASGSTFDGNTMGWYRQAPGKERELVAAISGSGGSTYYADSVKGRFTISRDNAKKTVYLQMNSLKPEDTAVYYCAARRIHTTSSRGYYWGQGTQVTVSS”: the “polyreactivity (PSR sort gate)” value was “high polyreactivity”.

On to “QVQLVESGGGLVQAGGSLRLSCAASGSTFDGYAMGWYRQAPGKERELVAAISRSGGRTYNADSVKGRFTISRDYAKNTVYLQMNSLKPEDTAVYYCAAYKPRPQYTDDDYWGQGTQVTVSS”, for which the “polyreactivity (PSR sort gate)” value was “high polyreactivity”.

For “QVQLVESGGGLVQAGGSLRLSCAASGSTFDHYTMGWYRQAPGKERELVAAINRIGDSTYYADSVKGRCTISRDNAKNTVYLQMTSLKPEDTAVYYCNTVSLSLRFDYWGQGTQVTVSS”, the “polyreactivity (PSR sort gate)” value is recorded as “high polyreactivity”.

On to “QVQLVESGGGLVQAGGSLRLSCAASGSTFDIYALGWDRQAPGKEREMVAVISGGDGSTYYADSVKGRFTISRDNEKNTVYLQMNSLKPEETAVYYFAADRGTVSYLYSPRAVDYWGQGTQVTVSS”, for which the “polyreactivity (PSR sort gate)” value was “low polyreactivity”.

Turning to “QVQLVESGGGLVQAGGSLRLSCAASGSTFDIYAMGWYRQAPGKERELVAAISVSDVDTYYADSVKGRFTISRDNAKNTVYLQMNSLKPEDTAVYYCNAERFWPWDYDYWGQGTQVTVSS”, the “polyreactivity (PSR sort gate)” value is recorded as “high polyreactivity”.

On to “QVQLVESGGGLVQAGGSLRLSCAASGSTFDIYAMGWYRQAPGKERELVAAITFSGGSTYADSVKGRFTISRDNAKNTVYLQMNSLKPEDTAVYYCAVDGGEFSSYGYWGQGTQVTVSS”, for which the “polyreactivity (PSR sort gate)” value is “low polyreactivity”.

With “QVQLVESGGGLVQAGGSLRLSCAASGSTFDKNAMGWYRQAPGKERELVAAITWRGGRTYYADSVKGRFPISRDNAKNTVYLQMNSLKPEDTAVYYCNKVSWEQMDYWGQGTQVTVSS”, the “polyreactivity (PSR sort gate)” value is recorded as “low polyreactivity”.

Consider “QVQLVESGGGLVQAGGSLRLSCAASGSTFDKYTMGWYRQAPGKDRELVAAISWSGGSTYASSVKGRFTMSRDNAKNTVYLQMTCLKPEDTAVYSCAARYRNYDLWLGNRRGSYYSWGQGTQVTVSS”, for which the “polyreactivity (PSR sort gate)” value is given as “high polyreactivity”.

Turning to “QVQLVESGGGLVQAGGSLRLSCAASGSTFDLYAMGWYRQAPGKERELVAAISSSGGRTYYADAVKGRFTISRDNAKNTVYLQMNSLKPEDTAVYDCAAVGYKYSRYDYWGQGTQVTVSS”, the “polyreactivity (PSR sort gate)” value was “high polyreactivity”.

In the case of “QVQLVESGGGLVQAGGSLRLSCAASGSTFDPNAMGWYRQAPGKERELVAVIDSGDGTTYYADSVKGRFTISRDNAKNTVYLQMNSLKPEDTAVYYCAVDESTSYYDDHEDYWGQGTQVTVSS”, the “polyreactivity (PSR sort gate)” value is reported as “low polyreactivity”.

Turning to “QVQLVESGGGLVQAGGSLRLSCAASGSTFDPNTKGWYRQAPGKERELVATITSVDSTNYADSVKGRFTISRDNANNTVYLQMNSLKTEDTAVYYCNADFVRVFFYAYDYWGQGTQVTVSS”, the “polyreactivity (PSR sort gate)” value is “low polyreactivity”.

Consider “QVQLVESGGGLVQAGGSLRLSCAASGSTFDPNVMGWYRQAPGKERELVAVITTTGVSTYYADSVKGRFTISRDNAKNTVYLQMNSLKPEDTAVYYCNAKWYWYLTRDAYRYRYTYDYWGQGTQVTVSS”, for which the “polyreactivity (PSR sort gate)” value is listed as “low polyreactivity”.

With “QVQLVESGGGLVQAGGSLRLSCAASGSTFDPYAMGWYRQAPGKERELVAAITGGGSTNYADSVKGRFTISRDNAKNTVYLQMNSLKPEDTAVYYCAATIPKPYHSGLRLLGQGTQVTVSS”, the “polyreactivity (PSR sort gate)” value is “low polyreactivity”.

With “QVQLVESGGGLVQAGGSLRLSCAASGSTFDPYAMGWYRQAPGKERELVATITYSGGRTYYADSVKGRFTISRDNAKNTVYLQMNSLKPEDTAVYYCAARVYTHYREFDYWGQGTQVTVSS”, the “polyreactivity (PSR sort gate)” value is reported as “low polyreactivity”.

On to “QVQLVESGGGLVQAGGSLRLSCAASGSTFDPYAMGWYRQAPGKESELVAAISRNGGRTYYADSVKGRFTISRDNAKNTVYLQMNSLTPEDTAVYYCAARSTGYGSTGRLLWYGHWGQGTQGTVSS”, for which the “polyreactivity (PSR sort gate)” value is listed as “high polyreactivity”.

For the sequence “QVQLVESGGGLVQAGGSLRLSCAASGSTFDRNAMGWYRQAPGKERELVAAINWRGGSTYYADSVKGRFTISRDNAKNTVYLQMNSLKPEDTAVYYCAKRQYSSDGRGFGYWGQVTQVTVSS”, the “polyreactivity (PSR sort gate)” value is “high polyreactivity”.

As for “QVQLVESGGGLVQAGGSLRLSCAASGSTFDRNAMGWYRQAPGKERELVAAISRRGGRTYYADSVKGRFTISRDNAKNTVYLQMNSLKPEDTAVYYCAAGKITFPMDYWGQGTQVTVSS”, the “polyreactivity (PSR sort gate)” value was “high polyreactivity”.

For the sequence “QVQLVESGGGLVQAGGSLRLSCAASGSTFDRNVMGWYRQAPGKERELVAAISFSGGSTYYADSVKGRFTISRDTAKNTVYLQMNSLKPEDTAVYYCAADDGYSYIYAAGDYWGQGTQVTVSS”, the “polyreactivity (PSR sort gate)” value is given as “low polyreactivity”.

On to “QVQLVESGGGLVQAGGSLRLSCAASGSTFDRNVMGWYRQAPGKERELVAAISRVSSTNYADSVKGRFTISRDNAKNTVYLQMNSLKPEDTAVYYFAADGAGSIMNYWGQGTQVTVSS”, for which the “polyreactivity (PSR sort gate)” value is reported as “low polyreactivity”.

These data come from the nanobody polyreactivity screen of Harvey et al. (2022).
